Here are results for two substances from paper PMC9677513.

Assay [1] addresses Nano-CRAF^CAT (human) (UniProt P04049). Nature of the assay: FRET or BRET. (BRET reads energy transfer from a luciferase to a nearby fluorophore.)
For assay [2], the target named is E275K-BRAF^FL-RLuc8 (human) (UniProt P15056). Nature of the assay: FRET or BRET.

Take “CRAF^REG construct containing the BRAF-CRD, Halo-tagged (domain or fragment)”: in assay [1], the increase of BRET signal over CRAF^REG turned out to be 40%.
Take “Venus-KRAS^G12V (from UniProt P01116 1-189) (natural protein)”: in assay [2], the increase of BRETmax over WT came to 15%.
